Test results taken from patent US20090258926A1 (CENTRE NATIONAL DE LA RECHERCHE SCIENTIFIQUE, published 2009).

Biological target: importin α of the cellular nuclear import machinery (endogenous, in Hs68 human fibroblasts)
Assay: cell-based or functional assay

Row | Binder | transfection efficiency (luciferase) after 48 hrs relative to MPG | luciferase expression after 12 hrs in synchronized Hs68 cells, relative to expression after 48 hrs
1 | Ac-GALFLGFLGAAGSTMGAWSQPKSKRKV-cysteamide (not fully specified) [MPG^ΔNLS peptide, tested as MPG^ΔNLS/DNA complex with plasmid] | 72% | –
2 | Ac-GALFLGFLGAAGSTMGAWSQPKKKRKV-cysteamide (not fully specified) [MPG peptide (wild-type MPG), tested as MPG/DNA complex with plasmid] | – | 65%
